Assay results reported in the supplement of paper PMC9876800.

Test system: peptide library, one residue held at a place counted from the S/T acceptor
Test: relative phosphorylation of the sub-library (ratio to the mean residue at this position); higher = residue favoured
Details: human
Summary of the method: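 In 384-well plates, purified recombinant kinases (human or orthologue constructs) were incubated for 90 min under kinase-specific conditions with 50 μM biotinylated degenerate peptide sub-libraries and 50 μM ATP spiked with γ-32P-ATP. Each sub-library fixed a single residue at one position around a central Ser/Thr. Relative sub-library phosphorylation, measured by phosphorimaging and densitometry of streptavidin membrane spots, is given as a ratio to the mean residue at that position.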

Chain of ACVR2A, construct: aa162-end (P27037 162-513, looked up): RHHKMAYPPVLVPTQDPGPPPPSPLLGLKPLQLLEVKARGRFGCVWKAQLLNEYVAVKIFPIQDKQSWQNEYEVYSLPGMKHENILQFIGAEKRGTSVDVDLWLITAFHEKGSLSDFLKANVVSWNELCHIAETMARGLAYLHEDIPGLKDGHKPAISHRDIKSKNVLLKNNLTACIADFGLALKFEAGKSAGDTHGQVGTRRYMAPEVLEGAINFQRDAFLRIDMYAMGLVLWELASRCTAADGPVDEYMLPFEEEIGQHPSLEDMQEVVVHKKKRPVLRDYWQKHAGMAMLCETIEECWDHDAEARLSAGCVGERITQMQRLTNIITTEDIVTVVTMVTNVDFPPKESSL
Chain of BUB1, construct: Full length (O43683 whole entry, looked up): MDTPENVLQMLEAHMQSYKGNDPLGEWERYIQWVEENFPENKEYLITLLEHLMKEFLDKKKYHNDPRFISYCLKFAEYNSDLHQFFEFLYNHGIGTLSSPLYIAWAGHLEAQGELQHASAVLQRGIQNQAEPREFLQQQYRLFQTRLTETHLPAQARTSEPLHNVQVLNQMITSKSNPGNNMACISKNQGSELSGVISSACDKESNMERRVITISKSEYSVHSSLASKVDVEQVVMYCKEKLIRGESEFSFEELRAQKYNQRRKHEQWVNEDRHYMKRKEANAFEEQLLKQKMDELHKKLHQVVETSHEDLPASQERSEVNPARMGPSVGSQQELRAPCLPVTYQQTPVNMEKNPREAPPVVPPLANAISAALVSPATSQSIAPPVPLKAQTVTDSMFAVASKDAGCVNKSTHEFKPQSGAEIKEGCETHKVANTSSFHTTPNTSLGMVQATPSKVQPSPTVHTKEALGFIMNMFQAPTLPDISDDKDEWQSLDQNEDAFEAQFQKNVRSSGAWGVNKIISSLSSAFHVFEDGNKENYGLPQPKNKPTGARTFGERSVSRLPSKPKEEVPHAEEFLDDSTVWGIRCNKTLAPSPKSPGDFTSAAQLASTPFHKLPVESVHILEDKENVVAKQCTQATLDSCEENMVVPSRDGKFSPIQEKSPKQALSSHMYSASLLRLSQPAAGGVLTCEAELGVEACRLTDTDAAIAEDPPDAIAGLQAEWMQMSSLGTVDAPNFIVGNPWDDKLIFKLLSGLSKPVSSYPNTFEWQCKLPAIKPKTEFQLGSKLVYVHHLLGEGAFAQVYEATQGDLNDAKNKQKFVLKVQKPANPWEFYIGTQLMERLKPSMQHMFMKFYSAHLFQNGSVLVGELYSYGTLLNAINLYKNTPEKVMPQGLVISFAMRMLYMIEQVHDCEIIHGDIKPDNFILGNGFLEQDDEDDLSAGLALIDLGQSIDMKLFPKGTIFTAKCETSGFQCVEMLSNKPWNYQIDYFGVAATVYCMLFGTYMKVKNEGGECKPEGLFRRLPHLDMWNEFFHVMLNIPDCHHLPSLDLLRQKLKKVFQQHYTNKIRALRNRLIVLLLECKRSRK

ACVR2A, construct: aa162-end (from UniProt P27037)
relative phosphorylation
Details | at +1 | at +2 | at +3 | at +4 | at -1 | at -2 | at -3 | at -4 | at -5
A fixed | 0.647 | 1.12 | 0.899 | 0.847 | 0.822 | 0.53 | 0.912 | 0.943 | 0.992
D fixed | 1.68 | 1.24 | 1.06 | 1.09 | 1.23 | 4.3 | 1.79 | 1.77 | 1.51
E fixed | 3.21 | 1.03 | 1.48 | 1.09 | 1.29 | 5.23 | 2.05 | 1.48 | 1.34
F fixed | 0.932 | 0.983 | 1.09 | 0.89 | 1.17 | 0.504 | 0.877 | 1.05 | 1.02
G fixed | 0.575 | 1.36 | 1.01 | 0.924 | 0.57 | 0.5 | 1.11 | 0.933 | 0.818
H fixed | 0.7 | 1.12 | 1 | 0.974 | 1.07 | 0.487 | 0.9 | 0.937 | 0.969
I fixed | 1.18 | 0.915 | 0.942 | 0.957 | 0.804 | 0.454 | 0.855 | 0.895 | 1.06
K fixed | 0.327 | 0.805 | 0.785 | 0.896 | 0.532 | 0.354 | 0.603 | 0.69 | 0.868
L fixed | 0.873 | 0.674 | 1.04 | 0.87 | 1.27 | 0.431 | 0.814 | 0.884 | 1.01
M fixed | 0.996 | 0.879 | 1 | 1.13 | 1.44 | 0.399 | 0.875 | 0.98 | 0.886
N fixed | 0.638 | 0.863 | 0.891 | 0.946 | 0.816 | 0.676 | 0.854 | 0.852 | 0.911
P fixed | 0.34 | 0.989 | 1.14 | 1.29 | 0.676 | 0.321 | 0.854 | 0.791 | 0.706
Q fixed | 1.23 | 1 | 0.848 | 1.05 | 0.9 | 0.769 | 0.863 | 0.82 | 0.732
R fixed | 0.416 | 0.935 | 0.658 | 0.835 | 0.577 | 0.504 | 0.783 | 0.777 | 0.808
V fixed | 1.32 | 0.999 | 0.963 | 0.877 | 1.1 | 0.502 | 0.928 | 0.924 | 1.02
W fixed | 0.961 | 0.983 | 1.08 | 1.36 | 1.39 | 0.54 | 1 | 1.28 | 1.37
Y fixed | 0.971 | 1.11 | 1.11 | 0.985 | 1.33 | 0.498 | 0.935 | 0.996 | 0.982
pThr fixed | 4.65 | 1.1 | 0.882 | 1.2 | 1.37 | 1.01 | 2.05 | 1.37 | 1.33
pTyr fixed | 2.81 | 0.877 | 1.39 | 1 | 1.81 | 0.721 | 1.66 | 1.16 | 1.29

BUB1, construct: Full length (from UniProt O43683)
relative phosphorylation
Details | at +1 | at +2 | at +3 | at +4 | at -1 | at -2 | at -3 | at -4 | at -5
A fixed | 0.963 | 0.738 | 0.95 | 0.855 | 0.796 | 0.718 | 1.66 | 1.24 | 0.423
D fixed | 0.375 | 0.267 | 0.416 | 0.455 | 0.321 | 0.411 | 0.232 | 0.61 | 0.245
E fixed | 0.325 | 0.331 | 0.379 | 0.424 | 0.289 | 0.284 | 0.347 | 0.865 | 0.246
F fixed | 0.541 | 1.13 | 0.784 | 0.78 | 0.855 | 0.411 | 0.389 | 0.739 | 0.486
G fixed | 1.34 | 1.09 | 1.09 | 1.31 | 0.502 | 0.418 | 0.918 | 1.06 | 0.377
H fixed | 0.807 | 1.22 | 0.969 | 1.04 | 0.902 | 0.597 | 0.591 | 0.882 | 0.393
I fixed | 0.594 | 0.761 | 0.565 | 1 | 0.551 | 1.8 | 0.839 | 0.556 | 1.12
K fixed | 3.21 | 2.02 | 1.22 | 1.93 | 2.21 | 3.31 | 1.2 | 1.66 | 0.472
L fixed | 0.552 | 0.851 | 0.543 | 0.849 | 1.43 | 1.13 | 0.526 | 1.16 | 4.97
M fixed | 0.759 | 0.986 | 0.777 | 0.96 | 1.32 | 0.851 | 0.656 | 1.13 | 1.3
N fixed | 0.662 | 0.583 | 0.711 | 1.07 | 0.566 | 0.584 | 0.616 | 0.558 | 0.388
P fixed | 0.367 | 2.16 | 4.04 | 0.962 | 1.33 | 0.721 | 3.77 | 1.5 | 1.53
Q fixed | 0.972 | 0.747 | 0.767 | 1.01 | 0.77 | 0.868 | 1.24 | 1.07 | 0.905
R fixed | 3.99 | 2.14 | 1.41 | 1.8 | 2.76 | 2.32 | 2.38 | 1.64 | 1.31
V fixed | 0.611 | 0.777 | 0.631 | 0.78 | 0.435 | 1.65 | 0.791 | 0.676 | 0.543
W fixed | 0.497 | 0.491 | 0.936 | 0.949 | 0.705 | 0.485 | 0.442 | 0.829 | 0.412
Y fixed | 0.442 | 0.713 | 0.813 | 0.824 | 1.26 | 0.452 | 0.405 | 0.827 | 1.87
pThr fixed | 0.373 | 0.328 | 0.586 | 0.443 | 0.199 | 0.249 | 0.375 | 0.475 | 0.408
pTyr fixed | 0.252 | 0.29 | 0.697 | 0.463 | 0.315 | 0.281 | 0.256 | 0.414 | 0.993
